Assay results taken from publication PMC2892505, “SUMO-1 possesses DNA binding activity”.
Values belong to the molecule of their own block, whether it stands above or below them.

Tests used:
GST-SUMO-1 [1] = assay: cross-linking; about 100 ng protein without or with increasing dsDNA, 10 min 37°C in NMR buffer (100 mM Na2PO4 pH 6.6, 1 mM EDTA, 1 mM DTT), UV 312 nm 10 min, SDS-PAGE and western blot (anti-GST or anti-SUMO-1); also with DNaseI treatment
SUMO-1 = SUMO-1 (human, UniProt P63165 1-101); assay: UV crosslinking, Western blot; NMR: 100 mM NaPi pH 6.6, 1 mM DTT, 1 mM EDTA, temperature not stated; UV crosslink: 100 ng GST-SUMO-1 with 500 ng dsDNA, buffer not stated; details: protein: recombinant; tags: untagged (GST removed by thrombin); 15N-labeled for NMR; blunt
Sequence of SUMO-1 (P63165 whole entry): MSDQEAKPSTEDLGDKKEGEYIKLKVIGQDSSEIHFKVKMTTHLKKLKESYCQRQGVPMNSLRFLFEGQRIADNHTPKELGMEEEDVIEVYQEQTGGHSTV

GST-SUMO-1 [2] = molecular target: GST-SUMO-1 (human, UniProt P63165 1-101); assay: UV crosslinking, Western blot; complex migrates faster than with 65-mer; NMR: 100 mM NaPi pH 6.6, 1 mM DTT, 1 mM EDTA, temperature not stated; UV crosslink: 100 ng GST-SUMO-1 with 500 ng dsDNA, buffer not stated; details: protein: recombinant; chain copies: 2; blunt
Sequence of GST-SUMO-1 (human, UniProt P63165 1-101) (P63165 whole entry): as above

stoichiometry N (GST-SUMO-1 [1]): 2
Molecule: GST-SUMO-1

B1: 27-mer (dsDNA)
DNA 1: CGGGGCCGGGGCGGGCCGCGCAAGCAG
DNA 2: CTGCTTGCGCGGCCCGCCCCGGCCCCG
binding result (SUMO-1): binds | binding result (GST-SUMO-1 [2]): binds
